Key:
[1] = target: T1, von Willebrand factor (VWF) (Homo sapiens, UniProt P04275 SEQ:764-2813); experiment: ELISA with anti-PEG detection; dPBS, 37 C, 2 h
Protocol: (§1) The affinity of BT200, with or without pre-incubation with BT101, for purified human VWF was evaluated using an enzyme-linked immunosorbent assay (ELISA) method. In this study, purified human VWF protein was dissolved in Dulbecco's phosphate buffered saline (dPBS) buffer at a concentration of 10 μg/mL and 100 μL of this solution was added to each well of a Nunc Maxisorp 96-well plate. The plate was incubated overnight at 4° C. The following day, the plate was washed 3 times, followed by blocking with 5% bovine serum albumin (BSA) in dPBS at room temperature for 90 minutes. The blocked plate was then washed 3 times before adding either BT200 at concentrations of 0.3, 1, 3, 10, 30, 100, 300, 1000, 3000, and 10000 nM or a pre-incubated 1:1 molar ratio of BT101:BT200 at the same concentrations. BT101 and BT200 were mixed and incubated at 37° C. for 30 minutes prior to addition to the plate.
(§2) Plates were then incubated at 37° C. for 2 hours. Each plate was then washed 3 times and 100 μL of anti-PEG antibody at 1 μg/mL in 1% BSA/dPBS was added to each well and incubated for 1 hour at room temperature. […] To stop the reaction, 100 μL of 2 N H₂SO₄ was added to each well and the plate was then read at 450 nm for absorbance and the mean absorbance under each set of conditions was recorded.

[2] = target: T1, von Willebrand factor (VWF); experiment: ELISA; no OD increase up to 10 uM BT200 after pre-incubation with BT101 at 1:1; dPBS, 37 C
Protocol: as §1, §2

T1 sequence (P04275 764-2813 Q852R): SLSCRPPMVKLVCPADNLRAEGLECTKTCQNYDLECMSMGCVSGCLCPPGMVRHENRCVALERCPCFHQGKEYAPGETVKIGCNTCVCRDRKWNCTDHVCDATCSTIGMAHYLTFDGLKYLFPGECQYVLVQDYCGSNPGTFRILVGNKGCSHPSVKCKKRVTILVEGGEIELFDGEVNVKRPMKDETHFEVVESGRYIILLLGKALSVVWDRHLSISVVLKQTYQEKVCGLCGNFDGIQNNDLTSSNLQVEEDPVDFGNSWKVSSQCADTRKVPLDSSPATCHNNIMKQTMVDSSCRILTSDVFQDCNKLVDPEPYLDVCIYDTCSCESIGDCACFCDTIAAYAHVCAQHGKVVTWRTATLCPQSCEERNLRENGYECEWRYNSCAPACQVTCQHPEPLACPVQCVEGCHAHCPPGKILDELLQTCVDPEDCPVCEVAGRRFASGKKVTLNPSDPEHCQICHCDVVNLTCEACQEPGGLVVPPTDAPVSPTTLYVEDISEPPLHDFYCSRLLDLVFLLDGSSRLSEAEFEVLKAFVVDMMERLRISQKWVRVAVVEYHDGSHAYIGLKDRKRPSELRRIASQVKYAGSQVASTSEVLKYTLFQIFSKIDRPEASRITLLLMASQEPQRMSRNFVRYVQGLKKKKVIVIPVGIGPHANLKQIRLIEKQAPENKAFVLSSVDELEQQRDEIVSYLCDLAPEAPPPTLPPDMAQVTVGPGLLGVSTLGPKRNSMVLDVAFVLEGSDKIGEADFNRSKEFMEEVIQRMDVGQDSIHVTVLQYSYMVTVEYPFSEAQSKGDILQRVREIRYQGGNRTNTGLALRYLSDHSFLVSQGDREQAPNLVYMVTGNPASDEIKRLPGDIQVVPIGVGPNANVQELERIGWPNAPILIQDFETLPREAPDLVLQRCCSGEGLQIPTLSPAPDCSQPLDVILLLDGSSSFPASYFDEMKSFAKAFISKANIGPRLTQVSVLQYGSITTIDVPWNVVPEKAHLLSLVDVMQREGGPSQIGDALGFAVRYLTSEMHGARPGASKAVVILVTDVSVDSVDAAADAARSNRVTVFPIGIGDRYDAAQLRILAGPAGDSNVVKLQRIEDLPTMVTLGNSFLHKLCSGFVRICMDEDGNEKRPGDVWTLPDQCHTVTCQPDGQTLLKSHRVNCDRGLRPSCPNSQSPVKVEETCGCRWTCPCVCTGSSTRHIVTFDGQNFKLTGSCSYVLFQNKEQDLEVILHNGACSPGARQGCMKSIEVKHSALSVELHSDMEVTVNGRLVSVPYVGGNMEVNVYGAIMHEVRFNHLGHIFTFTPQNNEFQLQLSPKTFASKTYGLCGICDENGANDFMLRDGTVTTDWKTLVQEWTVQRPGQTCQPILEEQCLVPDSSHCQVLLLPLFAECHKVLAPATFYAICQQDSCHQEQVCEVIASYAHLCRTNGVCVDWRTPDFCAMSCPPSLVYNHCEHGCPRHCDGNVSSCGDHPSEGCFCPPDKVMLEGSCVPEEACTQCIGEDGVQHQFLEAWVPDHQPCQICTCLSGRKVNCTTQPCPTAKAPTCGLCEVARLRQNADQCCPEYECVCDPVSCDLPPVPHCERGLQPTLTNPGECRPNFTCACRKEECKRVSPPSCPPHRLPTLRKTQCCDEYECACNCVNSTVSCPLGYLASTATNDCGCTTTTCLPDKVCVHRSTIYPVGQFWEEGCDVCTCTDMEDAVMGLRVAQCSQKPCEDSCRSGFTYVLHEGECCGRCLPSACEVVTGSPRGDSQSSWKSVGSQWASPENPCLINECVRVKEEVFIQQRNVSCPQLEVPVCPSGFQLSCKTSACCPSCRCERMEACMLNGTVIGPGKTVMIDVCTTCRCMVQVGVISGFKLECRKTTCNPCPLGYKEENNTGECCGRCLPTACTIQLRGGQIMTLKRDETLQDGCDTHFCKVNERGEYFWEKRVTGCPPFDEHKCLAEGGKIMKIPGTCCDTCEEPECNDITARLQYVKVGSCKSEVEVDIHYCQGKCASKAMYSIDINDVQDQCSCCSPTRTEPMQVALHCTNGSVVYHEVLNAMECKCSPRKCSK

Row | Binder | EC50 [1] | binding result [2]
1 | GCCAGGGACCUAAGACACAUGUCCCUGGC (ssRNA, all residues 2'-OMe; 5' PEG40K-NH; 3' idT (final t of SEQ 6)) [BT200] | 331 nM | 
2 | BT200/BT101 duplex (dsRNA, all residues 2'-OMe in both strands; BT200 5' PEG40K-NH; 3' idT on both strands) RNA 1: GCCAGGGACCUAAGACACAUGUCCCUGGC RNA 2: ACAUGUGUCUUAGGUCCCUGGCT |  | no binding

From patent publication US20230038761, “REGULATION OF VON WILLEBRAND FACTOR (VWF)” (BAND THERAPEUTICS, LLC, published 2023)
